Measured values as given in patent publication US20040259816A1.

Biological target: PKC δ (rat), P09215
Experiment: cell-based or functional assay

Chain of PKC δ (rat), P09215 (P09215 whole entry, stated change not applied): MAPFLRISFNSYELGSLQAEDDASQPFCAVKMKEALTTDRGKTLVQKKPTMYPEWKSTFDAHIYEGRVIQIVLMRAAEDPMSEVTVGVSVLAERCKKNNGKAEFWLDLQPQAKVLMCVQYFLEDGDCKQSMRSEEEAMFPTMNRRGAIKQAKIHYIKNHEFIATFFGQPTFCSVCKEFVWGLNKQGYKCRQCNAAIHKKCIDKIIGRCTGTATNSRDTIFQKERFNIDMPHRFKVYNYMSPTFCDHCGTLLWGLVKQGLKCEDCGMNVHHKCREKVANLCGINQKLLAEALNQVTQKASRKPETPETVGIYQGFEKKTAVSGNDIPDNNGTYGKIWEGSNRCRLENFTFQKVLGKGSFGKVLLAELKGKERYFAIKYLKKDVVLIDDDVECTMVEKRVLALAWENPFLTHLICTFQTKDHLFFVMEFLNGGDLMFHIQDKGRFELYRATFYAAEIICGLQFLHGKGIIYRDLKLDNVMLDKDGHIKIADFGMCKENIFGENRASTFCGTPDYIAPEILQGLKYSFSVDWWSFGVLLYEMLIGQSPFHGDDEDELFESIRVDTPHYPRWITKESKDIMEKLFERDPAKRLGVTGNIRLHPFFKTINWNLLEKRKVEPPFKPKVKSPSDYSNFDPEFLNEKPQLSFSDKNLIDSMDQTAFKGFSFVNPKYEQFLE

## SFNSYELGSLRQIKIWFQNRRMKWKK [PKC δ translocation inhibitor δV1-1 conjugated to Drosophila antennapedia peptide]
  inhibition of CCK-8 induced NF-κB activation (EMSA band intensity, rat pancreatic acini, 10 µM peptide): 76%
  inhibition of TNF-α induced NF-κB activation (EMSA band intensity, rat pancreatic acini, 10 µM peptide): 57%
